Source: patent US12649778
Where two headings read alike, the source gives them in different places.

How the values were obtained:
[1] = target: Peptide 1593 (…) (Mycobacterium tuberculosis); assay: indirect ELISA, recombinant antibody on 1 ug/ml coated peptide
[2] = target: Peptide 1593 (…) (Mycobacterium tuberculosis)
[3] = target: Peptide 1593 (…) (Mycobacterium tuberculosis); assay: indirect ELISA, supernatant on 1 ug/ml coated peptide
[4] = target: Peptide 2004 (…) (Mycobacterium tuberculosis)
[5] = target: monoclonal antibody 65D3-1
[6] = target: Peptide 1593 (…) (Mycobacterium tuberculosis); remark: listed apart in the source
[7] = target: Peptide 1593 (…) (Mycobacterium tuberculosis); assay: SPR (Biacore 8K), antibody immobilised, peptide as analyte
[8] = target: Peptide 1593 (…) (Mycobacterium tuberculosis); assay: SPR (Biacore 8K), antibody amine-coupled to CM5, peptide as analyte, 25 C
[9] = target: Peptide 1593 (…) (Mycobacterium tuberculosis); assay: SPR (Biacore), IgG amine-coupled, peptide as analyte

B1: Antibody 67G8-2 (antibody, V domains shown)
VH: QSVEESGGRLVTPGTPLTLTCTVSGFSLGNYDGHWVRQTPEKGLEWIGVIATIGDTYYASWAKGRFSISKTSATVELRITSPTTEDTATYFCVRGDSRTSNEIFNLWGQGTLVTVSS
VL: AVLTQTPSPVSAAVGGTLTINCQSTRSVHNNICLSWYQQKPGQPPKLLIYSASTLASGVPSRFKGSGSGTQFTLAINDVQCGDAATYYCAGCFPSKSDMYGFGGGTEVVVK
[1]
  OD450 at 1.95 ng/ml (1:512,000): 0.876 OD450
  OD450 at 3.90 ng/ml (1:256,000): 1.21 OD450
  OD450 at 7.81 ng/ml (1:128,000): 1.66 OD450
  OD450 at 15.62 ng/ml (1:64,000): 2.14 OD450
  OD450 at 31.25 ng/ml (1:32,000): 2.45 OD450
  OD450 at 62.50 ng/ml (1:16,000): 2.61 OD450
  OD450 at 125.00 ng/ml (1:8,000): 2.76 OD450
  OD450 at 250.00 ng/ml (1:4,000): 2.8 OD450
  OD450 at 500.00 ng/ml (1:2,000): 2.83 OD450
  OD450 at 1,000.00 ng/ml (1:1,000): 2.85 OD450
  Titer: > 512000 dilution 1:x
[2]
  Kd: 0.101 nM
  koff: 3.02e-05 s⁻¹
  kon: 299000 M⁻¹ s⁻¹
[3]
  OD450, supernatant 1:90: 3.1 OD450
  OD450, supernatant 1:270: 2.33 OD450
  OD450, supernatant 1:810: 1.31 OD450
  OD450, supernatant 1:2,430: 0.616 OD450
  OD450, supernatant undiluted: 3.22 OD450
  Titer: > 2430 dilution 1:x

B2: Antibody 135A6-1 (antibody, V domains shown)
VH: QSVEESGGRLVTPGTPLTLTCTVSGFSLGNYDISWVRQAPGKGLEWIGVIATVGDTYYASWAKGRFTISKTSATVDLKITSPTTEDTATYFCVRGDSPSTNEIFGLWGQGTLVTVSS
VL: AVLTQTPSPVSAAVGGTLTINCQSSRTVYNNICLSWYQQKLGQPPKLLIYGASTLTSGVPSRFRGSGSGTQFTLTINDVQCGDAATYYCAGCFPSTSDMYGFGGGTEVVVK
[3]
  OD450, supernatant 1:90: 3.46 OD450
  OD450, supernatant 1:270: 3.22 OD450
  OD450, supernatant 1:810: 2.68 OD450
  OD450, supernatant 1:2,430: 1.69 OD450
  OD450, supernatant undiluted: 3.27 OD450
  Titer: > 2430 dilution 1:x

B3: Antibody 101G10-2 (antibody, V domains shown)
VH: QSVEESGGRLVTPGTPLTLTCTVSGFSLSSYDMTWVRQAPGKGLEYIGVISYGGSAYYASWAKGRFTISKTSTTVDLKITSPTTEDTATYFCARGDSDGSSELFNLWGQGTLVTVSS
VL: AVLTQTPSPVSAPVGGTVSINCQSSKSVYNNNCLSWYQQKPGQPPNLLIYGASTLASGVPSRFKGSGSGTQFTLTINDVQCDDAATYYCAGCFASTNDMYGFGGGSEVVVK
[3]
  OD450, supernatant 1:90: 3.22 OD450
  OD450, supernatant 1:270: 3.21 OD450
  OD450, supernatant 1:810: 3.1 OD450
  OD450, supernatant 1:2,430: 2.41 OD450
  OD450, supernatant undiluted: 3.23 OD450
  Titer: > 2430 dilution 1:x

B4: Antibody 125D9-1 (antibody, V domains shown)
VH: QPVEESGGRLVTPGTPLTLTCTVSGFSLSSYDMTWVRQAPGKGLEYIGVVAYGGATYYASWAKGRFTISKTSTTVDLKITSPTTEDTATYFCARGDSDGSSELFNLWGQGTLVTVSS
VL: AVLTQTPSPVSAAVGGTVTINCQSSKSVYNNNCLSWYQQKQGQPPKLLIYQASTPASGVPSRFKGSGSGTQFTLTINDVQCDDAATYYCAGCFASTSDMYGFGGGTGVVVK
[3]
  OD450, supernatant 1:90: 3.37 OD450
  OD450, supernatant 1:270: 3.31 OD450
  OD450, supernatant 1:810: 3.27 OD450
  OD450, supernatant 1:2,430: 2.85 OD450
  OD450, supernatant undiluted: 3.2 OD450
  Titer: > 2430 dilution 1:x

B5: Antibody 6D10-1 (antibody, V domains shown)
VH: QSVEESGGRLVTPGTPLTLTCTVSGFSLSDVTMSWVRQAPGKGLEWIGIIGRRGRIWYANWAKGRFTISKTSPTVDLKIISPTSDDTATYFCARGAVSSDWNMYGMDLWGPGTLVTVSS
VL: QVLTQTPSSVSAPVGGTVTINCQSSQSVYNNENLAWYQQKLGQPPKLLIYGASTLASGVSSRFEGSGSGTQFALTISGVQCDDAATYYCQGEFDCSSADCFAFGGGTEVVVK
[4]
  rank by relative ELISA signal across the dilution series (1 = highest): 2

B6: Antibody 55H8-1 (antibody, V domains shown)
VH: QSMEESGGRLVTPGTPLTLTCTVSGFSLSDHAMSWVRQAPGKGLEWIGIVGRRGRTYYASWAKGRFTISKTSTTVDLKITSPTIEDTATYFCARGYVSSDWNIYGMDLWGPGTLVTVSS
VL: QVLTQTPSPVSAAVGGTVTINCQASQSVYNNKNLAWYQQKPGQPPKLLIYEASTLASGVSSRFKGSGSGTQFTLTISGVQCDDAATYYCQGEFDCSSADCFAFGGGTEVVVK
[4]
  rank by relative ELISA signal across the dilution series (1 = highest): 4

B7: Antibody 5B7-1 (antibody, V domains shown)
VH: QSVEESGGRLVTPGTPLTLTCTVSGFSLSDVTISWVRQAPGKGLKWTGIIGRRGRIRYADWAKGRFTISKTSTTVDLKITSPTTDDTATYFCARAYVSSDWNIYGMDLWGPGTLVTVSS
VL: QVLTQTASPVSAPVGGTVTINCQASQSVYNNKNLAWYQQKLGQPPKLLIYEASKLASGVSSRFEGSGSGTQFALTISGVQCDDAATYYCQGEFDCSSADCFVFGGGTEVVVK
[4]
  rank by relative ELISA signal across the dilution series (1 = highest): 3

B8: Antibody 10G3-1 (antibody, V domains shown)
VH: QSVEESGGRLVTPGTPLTLTCTASGFSLSDDAMSWVRQAPGKGLEWIGIIGRRGKTWYANWAKGRFTISKTSTTVDLKITSPTTEDTATYFCARGYVSSDWNIYGMDLWGPGTLVTVSA
VL: QVLTQTPSPVSAAVGGTVTINCQASQSVYNNKNLAWYQQKSGQPPKLLIYEASKLASGVPSRFKGSGSGTQFTLTISGVQCDDAATYYCQGEFSCSSADCFTFGGGTEVVVK
[4]
  rank by relative ELISA signal across the dilution series (1 = highest): 5

B9: Antibody 91B4-1 (antibody, V domains shown)
VH: QSLEESGGRLVSPGGSLTLTCTVSGIDLSRFGVSWVRQAPGKGLEWTGYIHTDGNVYYASWAKGRFTISKTSTTVDLKMTSLTTEDTATYFCARGGYAADLWGQAALVTVSS
VL: DPMLTQTPSSVSAAVGGTVTISCQSSESVYKNYLAWYQQKLGQPPKLLIGATSTLVSGVPSRFKGSGSRTQFSLTISDLECDDAATYYCVGGYTGKNVFGGGTEVVVK
[3]
  OD450, supernatant 1:90: 3.04 OD450
  OD450, supernatant 1:270: 2.27 OD450
  OD450, supernatant 1:810: 1.3 OD450
  OD450, supernatant 1:2,430: 0.618 OD450
  OD450, supernatant undiluted: 3.12 OD450
  Titer: > 2430 dilution 1:x

B10: Peptide 1593 (…) (peptide)
peptide: TDAATLAQEAGNFERC
modifications: not checked
[5]
  IC50 (read off the curve): 2 nM

B11: Antibody 3E9-1 (antibody, V domains shown)
VH: QSLEESGGRLVTPGGSLTLTCTVSGIDLSSNAMGWVRQAPGEGLEWIGSIYASGNTYYASWAKGRFAISKTSTTVDLKMTSLTAADTATYFCARLFNIWGPGTLVTVSS
VL: ADIVLTQTPASVSSVVGGTVTINCQASQSVFDNKNLSWFQQKPGQPPKQLIYGASTLDSGVPSRFKGSGSGTQFTLTISDMQCDDAATYYCGGRDSGNIYDFGGGTEVVVK
[4]
  rank by relative ELISA signal across the dilution series (1 = highest): 7

B12: Antibody 4G6-1 (antibody, V domains shown)
VH: QSLEESGGRLVTPGTPLTLTCTVSGIDLSSNAMGWVRQAPGEGLQWIGSIYSSGNTYYASWARGRFAISRTSTTVDLKMTSLTAADTATYFCARLFNIWGPGTLVTVSS
VL: ADIVVTQTPASVSADVGGTVTINCQASQSVYDNKNLAWFQQKPGQPPKQLIYGASTVASGVPSRFKGSGSGTQFTLTISDVQCDDAATYYCGGRDNDNIYDFGGGTEVVVK
[4]
  rank by relative ELISA signal across the dilution series (1 = highest): 10

B13: Antibody 76H12-1 (antibody, V domains shown)
VH: QELKESGGRLVTPGGSLTLSCTASGIDLSGSAMGWVRQAPGQGLEWIGSIYVSGNTYYASWAKGRFAISRTSTTVDLKMTSLTAADTATYFCARLLNIWGPGTLVTVSS
VL: ADIVLTQTPSPVSIAVGGTVTINCQASQSVYDNKNLAWFQQKPGQPPKQLIYGASTLASGVPSRFKGSGSGTQFTLTISGMQCDDAATYYCGGRDSDNIYDFGGGTEVVVK
[4]
  rank by relative ELISA signal across the dilution series (1 = highest): 8

B14: Antibody 21F10-1 (antibody, V domains shown)
VH: QSVEESGGRLVTPGTPLTLTCTVSGIDLSSNAVGWVRQAPGEGLEWIGSIYSSGNSYYASWAKGRFAISRTSTTVDLKMTRLTAADTATYFCARLFNIWGPGTLVTVS
VL: ADIVLTQTPASVSSVVGGTVAINCQASQSVYDNKNLSWFQQKPGQTPKQLIYGASTLASGVPSRFKGSGSGTQFTLTISGVQCDDAATYYCGGRDDDNIYDFGGGTEVVVK
[4]
  rank by relative ELISA signal across the dilution series (1 = highest): 11

B15: monoclonal antibody 65D3-1 (antibody, V domains shown)
VH: QSLEESGGRLVTPGGSLTLTCTVSGFSLSTHDISWVRQAPGKGLEWIGVIARRGSTYYASWAKGRFTISKTSTTVDLKITSPTIEDTATYFCAREEFDFWGQGTLVTVSS
VL: AVLTQTASPVSAAVGGTVTISCQSSQSVYNNKELSWFQQKPGQPPKLLISYASTLASGVPSRFKGSGSGTQFTLTISDLECDDAATYYCLGGYASTIDMWAFGGGTEVVVK
[6]
  koff: 0.000238 s⁻¹
  kon: 138000 M⁻¹ s⁻¹
[7]
  Kd: 1.72 nM
[8]
  Kd: 1.72 nM

B16: 65D3 wild-type recombinant IgG (VH + VL) (antibody, V domains shown)
VH: QSLEESGGRLVTPGGSLTLTCTVSGFSLSTHDISWVRQAPGKGLEWIGVIARRGSTYYASWAKGRFTISKTSTTVDLKITSPTIEDTATYFCAREEFDFWGQGTLVTVSS
VL: AVLTQTASPVSAAVGGTVTISCQSSQSVYNNKELSWFQQKPGQPPKLLISYASTLASGVPSRFKGSGSGTQFTLTISDLECDDAATYYCLGGYASTIDMWAFGGGTEVVVK
[9]
  Kd: 0.755 nM
  koff: 0.00017 s⁻¹
  kon: 225000 M⁻¹ s⁻¹
